The values below are quoted from earlier work in patent US12258594B2, “Cas proteins with reduced immunogenicity and methods of screening thereof” (THE BROAD INSTITUTE, INC., priority 2018, dated 2025).

Residue numbers refer to the chain shown, from its start. In names and notes the source's numbering stands.

The chains are these.
B1: E477A: E477A mutant of SaCas9 (protein, UniProt J7RUA5 1-1053, looked up, variant E477A)
CRISPR-associated …: MKRNYILGLDIGITSVGYGIIDYETRDVIDAGVRLFKEANVENNEGRRSKRGARRLKRRRRHRIQRVKKLLFDYNLLTDHSELSGINPYEARVKGLSQKLSEEEFSAALLHLAKRRGVHNVNEVEEDTGNELSTKEQISRNSKALEEKYVAELQLERLKKDGEVRGSINRFKTSDYVKEAKQLLKVQKAYHQLDQSFIDTYIDLLETRRTYYEGPGEGSPFGWKDIKEWYEMLMGHCTYFPEELRSVKYAYNADLYNALNDLNNLVITRDENEKLEYYEKFQIIENVFKQKKKPTLKQIAKEILVNEEDIKGYRVTSTGKPEFTNLKVYHDIKDITARKEIIENAELLDQIAKILTIYQSSEDIQEELTNLNSELTQEEIEQISNLKGYTGTHNLSLKAINLILDELWHTNDNQIAIFNRLKLVPKKVDLSQQKEIPTTLVDDFILSPVVKRSFIQSIKVINAIIKKYGLPNDIIIALAREKNSKDAQKMINEMQKRNRQTNERIEEIIRTTGKENAKYLIEKIKLHDMQEGKCLYSLEAIPLEDLLNNPFNYEVDHIIPRSVSFDNSFNNKVLVKQEENSKKGNRTPFQYLSSSDSKISYETFKKHILNLAKGKGRISKTKKEYLLEERDINRFSVQKDFINRNLVDTRYATRGLMNLLRSYFRVNNLDVKVKSINGGFTSFLRRKWKFKKERNKGYKHHAEDALIIANADFIFKEWKKLDKAKKVMENQMFEEKQAESMPEIETEQEYKEIFITPHQIKHIKDFKDYKYSHRVDKKPNRELINDTLYSTRKDDKGNTLIVNNLNGLYDKDNDKLKKLINKSPEKLLMYHHDPQTYQKLKLIMEQYGDEKNPLYKYYEETGNYLTKYSKKDNGPVIKKIKYYGNKLNAHLDITDDYPNSRNKVVKLSLKPYRFDVYLDNGVYKFVTVKNLDVIKKENYYEVNSKCYEEAKKLKKISNQAEFIASFYNNDLIKINGELYRVIGVNNDLLNRIEVNMIDITYREYLENMNDKRPPRIIKTIASKTQSIKKYSTDILGNLYEVKSKKHPQIIKKG
B2: N580A: N580A mutant of SaCas9 (protein, UniProt J7RUA5 1-1053, looked up, variant N580A)
CRISPR-associated …: B1 CRISPR-associated … with A477E, N580A
B3: D704A: D704A mutant of SaCas9 (protein, UniProt J7RUA5 1-1053, looked up, variant D704A)
CRISPR-associated …: B1 CRISPR-associated … with A477E, D704A
B4: H557A: H557A mutant of SaCas9 (protein, UniProt J7RUA5 1-1053, looked up, variant H557A)
CRISPR-associated …: B1 CRISPR-associated … with A477E, H557A

The data set relates to target DNA. The following applies: SaCas9 mutants.
Regarding B1, the DNA cleavage activity result is on record as “almost no DNA cleavage activity”.

In the case of B2, the DNA cleavage activity entry is recorded as “almost completely lacked DNA cleavage activity”.

For B3, the DNA cleavage activity result is reported as “almost no DNA cleavage activity”.

B4: the DNA cleavage activity result is “almost completely lacked DNA cleavage activity”.
